The target in assay [1] is human serum protease plasmin (human, UniProt P00747 97-810, limits assumed). Nature of the assay: phage binding to protein on beads (data not shown).
The target of assay [2] is human serum protease thrombin (human, UniProt P00734 328-622). Nature of the assay: phage binding to protein on beads (data not shown).
The target of assay [3] is T1, recombinant human tissue-type plasminogen activator (tPA) (human, UniProt P00750 36-562).
T1 construct: Immobilized on ReactiGel agarose beads for the phage work; Used in solution for the column tests
T1 sequence (P00750 36-562 limits assumed): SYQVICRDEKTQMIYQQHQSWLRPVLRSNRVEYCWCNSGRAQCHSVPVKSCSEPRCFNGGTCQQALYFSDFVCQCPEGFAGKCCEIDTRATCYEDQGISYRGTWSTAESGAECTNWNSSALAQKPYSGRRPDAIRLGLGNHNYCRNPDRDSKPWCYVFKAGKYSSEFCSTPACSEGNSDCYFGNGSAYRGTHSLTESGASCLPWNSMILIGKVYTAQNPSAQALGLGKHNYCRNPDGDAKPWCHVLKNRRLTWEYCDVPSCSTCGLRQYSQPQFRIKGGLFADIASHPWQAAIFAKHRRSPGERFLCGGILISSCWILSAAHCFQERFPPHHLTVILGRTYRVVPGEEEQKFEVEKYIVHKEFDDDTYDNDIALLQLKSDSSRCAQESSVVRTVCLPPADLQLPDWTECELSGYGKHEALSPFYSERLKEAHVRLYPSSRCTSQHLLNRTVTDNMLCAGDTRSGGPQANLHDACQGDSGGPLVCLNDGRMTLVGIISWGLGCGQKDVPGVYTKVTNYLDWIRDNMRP
The assay is described as follows: phage display selection on tPA agarose beads, binding at pH 7. The procedure: For this work, tPA was purchased from CalBiochem (#612200) and immobilized on ReactiGel™ agarose beads from Pierce Chemical Company by methods described in Markland et al. (1996). Approximately 200 μg of tPA were coupled to 200 μL of ReactiGel™ slurry.
The phage libraries described were screened for binding to tPA through four rounds. In the first round, the phage libraries were mixed in separate reactions with tPA agarose beads at pH 7 in phosphate-buffered saline (PBS). Bovine serum albumin (BSA) was added at 0.1% to reduce non-specific binding. Unbound phage were washed off at pH 7, and the bound phage eluted at pH 2 for the first screen only. […] Pool A consisted of the combined outputs from the CMTI and Lib#1 libraries, and Pool B consisted of the combined outputs of the Lib#3 and Lib#5 libraries. The binding of pooled libraries was performed at pH 7, however, the first elution to remove bound phage was carried out at pH 5 and a subsequent elution at pH 2 to elute phage that are released in the pH 5-pH 2 range. This was repeated twice more for a total of 4 rounds of selection.

Sequence of human serum protease plasmin (P00747 97-810 limits assumed): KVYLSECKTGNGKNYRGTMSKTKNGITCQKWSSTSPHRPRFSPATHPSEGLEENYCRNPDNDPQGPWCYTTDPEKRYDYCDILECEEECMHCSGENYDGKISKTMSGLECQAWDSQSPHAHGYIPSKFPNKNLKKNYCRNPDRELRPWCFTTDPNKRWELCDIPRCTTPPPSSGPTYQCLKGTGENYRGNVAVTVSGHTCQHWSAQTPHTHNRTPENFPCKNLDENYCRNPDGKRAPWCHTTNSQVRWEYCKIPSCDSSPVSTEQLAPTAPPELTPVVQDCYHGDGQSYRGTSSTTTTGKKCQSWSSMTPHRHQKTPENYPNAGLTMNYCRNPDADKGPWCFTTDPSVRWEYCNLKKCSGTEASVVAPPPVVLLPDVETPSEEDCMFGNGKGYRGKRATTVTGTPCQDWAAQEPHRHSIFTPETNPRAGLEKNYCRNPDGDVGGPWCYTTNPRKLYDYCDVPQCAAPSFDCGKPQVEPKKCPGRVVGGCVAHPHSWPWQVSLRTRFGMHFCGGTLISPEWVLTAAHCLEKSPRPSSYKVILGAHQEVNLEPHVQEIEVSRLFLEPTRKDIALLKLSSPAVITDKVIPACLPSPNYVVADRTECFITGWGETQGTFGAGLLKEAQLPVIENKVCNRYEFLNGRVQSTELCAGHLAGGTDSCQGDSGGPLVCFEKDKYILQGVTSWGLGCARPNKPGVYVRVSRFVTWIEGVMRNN

B1: CMTI-I analogue 120, phage isolate (designed binder)
chain: RWCPKTSLECMKDSDCLAECVCLEHGYCGAGPSYIEGRIVGSA
notes: not shown: mature gene III protein of M13 phage
For B1, the binding result in assay [1] was “no binding”; in assay [2], “no binding”; in assay [3] it was “binds”.

B2: CMTI-I analogue 119, phage isolate (designed binder)
chain: RWCPKTHKECMKDSDCLAECVCLEHGYCGAGPSYIEGRIVGSA
notes: as for B1
For B2, the binding result is “no binding” in assay [1], “no binding” in assay [2] and “binds” in assay [3].

B3: CMTI-I analogue 116, phage isolate (designed binder)
chain: RWCIRTDLGCMKDSDCLAECVCLEHGYCGAGPSYIEGRIVGSA
notes: as for B1
On to B3, for which the binding result in assay [1] was “no binding”; in assay [2], “no binding”; in assay [3], “binds”.

B4: CMTI-I analogue 229, phage isolate (designed binder)
chain: RWCPKYTLECMKDSDCLAECVCLEHGYCGAGPSYIEGRIVGSA
notes: as for B1
B4: the binding result in assay [1] is “no binding”; in assay [2], “no binding”; in assay [3] it was “binds”.

B5: CMTI-I analogue 114, phage isolate (designed binder)
chain: RWCPKSALDCKKDSDCLAECVCLEHGYCGAGPSYIEGRIVGSA
notes: as for B1
For B5, the binding result in assay [1] was “no binding”; in assay [2], “no binding”; in assay [3] it was “binds”.

B6: CMTI-I analogue 226, phage isolate (designed binder)
chain: RWCPRSNLECMKDSDCLAECVCLEHGYCGAGPSYIEGRIVGSA
notes: as for B1
Regarding B6, the binding result is “no binding” in assay [1], “no binding” in assay [2] and “binds” in assay [3].

B7: CMTI-I analogue 221, phage isolate (designed binder)
chain: RWCPKSTLGCMKDSDCLAECVCLEHGYCGAGPSYIEGRIVGSA
notes: as for B1
As to B7, the figures for the binding result in assay [1], in assay [2] and in assay [3] were “no binding”, “no binding” and “binds”, respectively.

B8: CMTI-I analogue 223, phage isolate (designed binder)
chain: RWCPKYTLECMKDSDCLAECVCLEHGYCGAGPSYIEGRIVGSA
notes: as for B1
B8: the binding result is “no binding” in assay [1], “no binding” in assay [2] and “binds” in assay [3].

B9: CMTI-I analogue 115, phage isolate (designed binder)
chain: RWCTKTSRECMKDSDCLAECVCLEHGYCGAGPSYIEGRIVGSA
notes: as for B1
Consider B9, for which the binding result in assay [1] is given as “no binding”; in assay [2], “no binding”; in assay [3], “binds”.

B10: CMTI-I analogue 233, phage isolate (designed binder)
chain: RWCPKYTLECMKDSDCLAECVCLEHGYCGAGPSYIEGRIVGSA
notes: as for B1
B10: the results for the binding result in assay [1], in assay [2] and in assay [3] were “no binding”, “no binding” and “binds”, respectively.

B11: CMTI-I analogue 118, phage isolate (designed binder)
chain: RWCPRTVRRCMKDSDCLAECVCLEHGYCGAGPSYIEGRIVGSA
notes: as for B1
On to B11, for which the binding result in assay [1] is listed as “no binding”; in assay [2], “no binding”; in assay [3], “binds”.

B12: CMTI-I analogue 232, phage isolate (designed binder)
chain: RWCPKTSLGCMKDSDCLAECVCLEHGYCGAGPSYIEGRIVGSA
notes: as for B1
With B12, the values for the binding result in assay [1], in assay [2] and in assay [3] were “no binding”, “no binding” and “binds”, respectively.

B13: CMTI-I analogue 101, phage isolate (designed binder)
chain: RWCPKTSLGCMKDSDCLAECVCLEHGYCGAGPSYIEGRIVGSA
notes: as for B1
For B13, the figures for the binding result in assay [1], in assay [2] and in assay [3] were “no binding”, “no binding” and “binds”, respectively.

B14: CMTI-I analogue 104, phage isolate (designed binder)
chain: RWCSTYSLGCMKDSDCLAECVCLEHGYCGAGPSYIEGRIVGSA
notes: as for B1
For B14, the binding result in assay [1] is “no binding”; in assay [2], “no binding”; in assay [3], “binds”.

B15: CMTI-I analogue 113, phage isolate (designed binder)
chain: RLCPKTDLGCMKDSDCLAECVCLEHGYCGAGPSYIEGRIVGSA
notes: as for B1
As to B15, the binding result in assay [1] is recorded as “no binding”; in assay [2] it was “no binding”; in assay [3], “binds”.

B16: CMTI-I analogue 103, phage isolate (designed binder)
chain: RWCSTYSLGCMKDSDCLAECVCLEHGYCGAGPSYIEGRIVGSA
notes: as for B1
For B16, the binding result is reported as “no binding” in assay [1], “no binding” in assay [2] and “binds” in assay [3].

B17: CMTI-I analogue 228, phage isolate (designed binder)
chain: RWCPKYTLECMKDSDCLAECVCLEHGYCGAGPSYIEGRIVGSA
notes: as for B1
On to B17, for which the binding result in assay [1] is recorded as “no binding”; in assay [2] it was “no binding”; in assay [3], “binds”.

B18: CMTI-I analogue 111, phage isolate (designed binder)
chain: RWCPRTVQECMKDSDCLAECVCLEHGYCGAGPSYIEGRIVGSA
notes: as for B1
Consider B18, for which the binding result is “no binding” in assay [1], “no binding” in assay [2] and “binds” in assay [3].

B19: CMTI-I analogue 112, phage isolate (designed binder)
chain: RWCPTAPLECMKDSDCLAECVCLEHGYCGAGPSYIEGRIVGSA
notes: as for B1
As for B19, the binding result is “no binding” in assay [1], “no binding” in assay [2] and “binds” in assay [3].

B20: CMTI-I analogue 117, phage isolate (designed binder)
chain: RWCPKTSLGCMKDSDCLAECVCLEHGYCGAGPSYIEGRIVGSA
notes: as for B1
As for B20, the binding result is on record as “no binding” in assay [1], “no binding” in assay [2] and “binds” in assay [3].

B21: CMTI-I analogue 102, phage isolate (designed binder)
chain: RLCPKTYLGCMKDSDCLAECVCLEHGYCGAGPSYIEGRIVGSA
notes: as for B1
Regarding B21, the binding result is on record as “no binding” in assay [1], “no binding” in assay [2] and “binds” in assay [3].

B22: CMTI-I analogue 110, phage isolate (designed binder)
chain: RWCPKSSMGCKKDSDCLAECVCLEHGYCGAGPSYIEGRIVGSA
notes: as for B1
Regarding B22, the binding result in assay [1] is “no binding”; in assay [2], “no binding”; in assay [3], “binds”.

B23: CMTI-I analogue 222, phage isolate (designed binder)
chain: RWCPKSTLGCMKDSDCLAECVCLEHGYCGAGPSYIEGRIVGSA
notes: as for B1
Turning to B23, the binding result in assay [1] was “no binding”; in assay [2], “no binding”; in assay [3], “binds”.

B24: CMTI-I analogue 224, phage isolate (designed binder)
chain: RWCPRSSLECMKDSDCLAECVCLEHGYCGAGPSYIEGRIVGSA
notes: as for B1
Consider B24, for which the binding result in assay [1] is “no binding”; in assay [2], “no binding”; in assay [3], “binds”.

These data come from patent US20030162942A1 (DYAX, published 2003).
